Experiment: soluble on expression in E. coli; label from the status in PepcDB or PDB records

Row | Sequence | soluble on expression in E. coli
1 | MTQHSRDTPQFYLTAPSPCPYLPGRHERKVFTHLVGNKAGELNDLLTHGGFRRSQSIAYRPACDQCRACVSVRVIANEFKPSRNQRKLLARNADIVGEQRNPVPTSEQYSVFRAYLDQRHRYGGMADMTVLDYAMMVEDSHVQTRMIEYRKRTPDTGITGRGGELIAAALTDVLGDGLSMVYSFYEPNEQHRSLGTFMILDHIARARRLGLPYVYLGYWIEGSKKMDYKGRYLPQQRLAPSGWLRIDASGEMQPEPQDLEHHHHHH | not soluble
2 | MTQLRHFSHGASVFDIDSVEDFTEKVIQSSVPVIVDFHAEWCGPCQALGPRLEEKVNGRQGSVLLAKINVDHAGELAMDYGISAVPTVFAFKNGEKISGFSGVLDDEQLDDFIEDVLAA | not soluble
3 | MTQPAAAVAAAAPAQTAPILGECVLKLSRSTTYEPPLYLFPELLPPVPQGTPPLPVWDAVADAVDIAASSWRVADATQLIAAGVAAAGTSGIKPSTGVERRPQAMVTLTSMIAENRLLAAGLDATVLERDAFSSAAIITHLAALQARMGLSDEEGAAIMSNHFINLLAWQKLRELNGPSLHAAVSRAEQKVSDEEAAGSAAFSPSHAAPPPSRKRSRADQDNDERDVWLPSPHPWATEAELAASDGSGRFVAVSEANVEQQVELLRTLAELYHRPWRTLASRGQQTDFVVPPGTVNVTSPFADNSKVPGALLDPATALGWGATLSSSLSTDYFGGVRVAHTACFYAVVLSAGTPTSAGKSVAPAPTRLPLDELTTYFGRESGVRGAAAVAAAAATPIAGALAPYTTHPEVLSRFQFALVLRPVYEHAADANEVRRPDSHLHVGKREPSTDDEASESDADAHQGHAAVLHTKRPHHYTLWLVNYGRNGVRVAGRGWVLSEPRQLQAGDVLIVGSEVQLRVEEHFSAAAARAPVVSDATLNTASVSSSQVKQERIEG | not soluble
4 | MTQQIKYKRVLLKLSGESLMGSDPFGINHDTIVQTVGEIAEVVKMGVQVGIVVGGGNIFRGVSAQAGSMDRATADYMGMMATVMNALALKDAFETLGIKARVQSALSMQQIAETYARPKAIQYLEEGKVVIFAAGTGNPFFTTDTAAALRGAEMNCDVMLKATNVDGVYTADPKKDPSATRYETITFDEALLKNLKVMDATAFALCRERKLNIVVFGIAKEGSLKRVITGEDEGTLVHC | soluble
5 | MTQVRETVSFKAGDVILYPGVPGPRDRAYRVLEGLVRLEAVDEEGNALTLRLVRPGGFFGEEALFGQERIYFAEAATDVRLEPLPENPDPELLKDLAQHLSQGLAEAYRRIERLATQRLKNRMAAALLELSETPLAHEEEGKVVLKATHDELAAAVGSVRETVTKVIGELAREGYIRSGYGKIQLLDLKGLKELAESRGQGR | soluble
6 | MTRAEVGLVWAQSTSGVIGRGGDIPWSVPEDLTRFKEVTMGHTVIMGRRTWESLPAKVRPLPGRRNVVVSRRPDFVAEGARVAGSLEAALAYAGSDPAPWVIGGAQIYLLALPHATRCEVTEIEIDLRRDDDDALAPALDDSWVGETGEWLASRSGLRYRFHSYRRD | soluble
7 | MTRCPERPGFMPRLSSHHFSRSRLSAPLLASGARVKLLCAPAGSGKTALLAECLQQAPETCRVSWLPLSGGRHSPQGLCAALAQALGLERDDEATVLQHLAHLQAPAWIFIDDYCRVAAADLDLLLDRLLSLDNPQLTWWLGCRRRPLCNWPRLLLDDQLFELDGPALAFSQIEIEQLLQRLPQPLCAQTASRILQRSGGWCAGVRIALLEGSELTIQPCKPGRPNTLLEYLEHELFSVLPAELAQVWQVLAHLPRFNAELCEHLFGVGEGAQYLRTLQDMACFIEPWDGGGDWLQVFPPLARLMRDE | not soluble
8 | MTRHSAVRQAIIAALKKTDDGSTTFFDGRPVVVEEDELPAVAVYLSDAQYTGPEVDGDIWSAVLHVEVFLKATAPDSALDEQMENRVYPALGSVAGLGDIIRTMSAQGYNYQRDDEMAMWGSADLSYDITYSM | not soluble
9 | MTRNAPPGQESTDLAWLVTPAKDLVENFSIDVLKALAGYLEVIRQESEDTDNQVDAATTYRLFDFQRACRIIQGSCAVYGRKVDHVYELTISVVDLVENKGQDDGNTGSRRGAGRRKNFNLGSTNYDLADIDSLKQEALANFEKTVKEEKKSIDAVRMVENAEVIESQYERKSCLVAKPTQFMFKLNYGQLNRTDEQILNAKSRPDVIGKVKDFEIKKSKVKHDQQILYSHDCYRGNLDQFTLPGARWMPDNKELAANFGVADLEVELDLEQEHEKISAYGPFKDPLSGREVVPPPRWFIEQEAVRQNQEIQSRATSRAITIAAKTLRDSQGFGSQPTRLSQPFVERHRQSNHLNDFLSFVEGRVNKNRPSTHLTTGLVDMFVDNFGSVMQNDEPNTSRRPDENYAPMDFDDDFGGGGDDDDDDYIRNLSRRDEKRAPAPWDELDKNHIIWYTGDENLPVVSKPVKKITKFQPKPAEMLARKQRREEKINKSRRDEFMETHDYLQDYYYWRSAARINPIKDWKIESLRTAILAEKKRRIKEKTAKIREARIQNMQRKRTARVIPVEQFEPVTEDIPTSNRRTLGAEYDDVVDEDLAAEVELSMFGGGFDDDEEDVRPRGERPPMAPNNLEFDALQTDFDIPPAEYVPLRFEDIDDAELNSVINLPGNLLIDKALPLLKKFAENRTDREQMAYEMAKAYEDVDVAVSTLQEHVDKWHSRMEPILEEGETRKEYDVHAVGRAVIGQYDIEGGTKRLLDLVMDRPWYEISRYFLSCLFMCNVGNVMVSEDMELPLEERINSMKITLLKRDMHCEMFKEAGALDA | not soluble
10 | MTRSDRPYRGVEAAERLATRRRQSLSAGLDLLGSDQHDIAELTIRTICRRAGLSVRYFYESFTDKDEFVGRVFDWVVAELVATTQAAVTAVPAREQTRAGMANIVRTITADARVGRLLFSTQLANAVITRKRAESSALFAMLSGQHAVDTLHAPANDHVKAVAHFAVGGVGQTISAWLAGDVRLDPDQLVDQLAALLDELTDPNLSRPRVAATAAKSGANDPQPPEVAGQPPSSARPARRS | soluble
11 | MTSDGMDEWPTGRLLSTAARLVEHSWEDILRSQNMTHAGLICLHTIADRPASQRDIAKVSRVTDQTISRTIDRLERAGYVTRETDPLDERRKRVAITESGRAIYRRLLALEKEDAALTAAVGDVGPLREQLLLLVRSLGLPTRD | not soluble
12 | MTSFTIPGLSDKKASDVADLLQKQLSTYNDLHLTLKHVHWNVVGPNFIGVHEMIDPQVELVRGYADEVAERIATLGKSPKGTPGAIIKDRTWDDYSVERDTVQAHLAALDLVYNGVIEDTRKSIEKLEDLDLVSQDLLIAHAGELEKFQWFVRAHLESAGGQLTHEGQSTEKGAADKARRKSA | soluble
13 | MTSMDNSARGQRHNEFADSAARIEAANDMSISAGRDVINKGSVLESGRDMSIQAGRDVTIAPTEVTNSLFSDSKHNSSDITQLGSTASAGRDLTVQAGRDISVIASQIDAKRDIAMAATENLTISSAADEEHSLSKSKKLTRQEDHVSQIAADLDAGGSVALQAGQNLAVISSRITAGKEAYLVAGDQLDILAAQDSDYSLYDKKKKGSFGAKKTKRDEITDVKNIGSEITTGGDLLLASGGDQKYQVAKLESGKDLTIDSGGAVTFEGVKDLHQESHEKSKSDLAWNSSKGKGNTDETLRQSELVAKGELAIRAVEGLKIDIKQVDQQSVSQTIDAMVKADPQLAWLKEAELRGDVDWRQVKEVHDSLIGTAVNAAVVAGLTSATSQAVISTVNNKGNLGAALKDVTSAESMKGYLVSGLAAGFAAGILDPAYGVSPENTAKATHGFDLGSVDGFTNYAGYTLAQGGFSAAANTAINGGSLTDNLAQAAISSAADAMSAGIYNKLGTKLEFSGLPSKLAAHALVGGLIAELAGGDFRSGALAAGANEAFVNLVGDKIFVGESHDKLLAMTSQLVGLTVAAAAGGTDKDQAVAGWVAQQATTFNYLEHSEKEAFIKEMLGCDTDKCAREKWEQGKFDEDSQANVQYANDIAGSQRARETRDRVLDSLGSILDMNCPTSACEGYKQLLMERSLGTLKNLNQVIKDWASVDQRLGLMAGAAVGGQANYKCGSTASRSAGVDLEHHHHHH | soluble
